Assay results: patent US20210155689A1 (SHANGHAI PHARMAEXPLORER, published 2021)

T1: LAG-3-hFc protein (human LAG-3 extracellular region with hFc tag) (human, UniProt P18627 23-450)
T1 construct: also called hLAG-3-hFc; LAG-3 protein; not shown: human IgG Fc fragment (hFc) of the pCpC vector
T1 sequence: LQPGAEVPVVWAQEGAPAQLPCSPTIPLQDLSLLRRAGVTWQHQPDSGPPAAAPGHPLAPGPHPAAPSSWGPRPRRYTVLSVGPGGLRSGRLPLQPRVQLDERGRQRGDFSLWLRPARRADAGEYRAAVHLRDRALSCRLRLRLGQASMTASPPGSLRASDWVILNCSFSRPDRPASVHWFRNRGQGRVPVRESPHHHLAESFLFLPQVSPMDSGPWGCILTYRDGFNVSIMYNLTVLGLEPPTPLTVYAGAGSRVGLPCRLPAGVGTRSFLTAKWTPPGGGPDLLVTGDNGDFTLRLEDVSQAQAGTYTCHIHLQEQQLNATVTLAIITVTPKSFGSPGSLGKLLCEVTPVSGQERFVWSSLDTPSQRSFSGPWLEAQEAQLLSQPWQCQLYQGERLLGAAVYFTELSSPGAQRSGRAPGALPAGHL

T2: human LAG-3 (full length, on the cell surface) (human, UniProt P18627 23-525)
T2 construct: Full-length human LAG-3 expressed on cells; also called HEK293-hLAG-3; HEK293 cells transfected with LAG-3 gene
T2 sequence: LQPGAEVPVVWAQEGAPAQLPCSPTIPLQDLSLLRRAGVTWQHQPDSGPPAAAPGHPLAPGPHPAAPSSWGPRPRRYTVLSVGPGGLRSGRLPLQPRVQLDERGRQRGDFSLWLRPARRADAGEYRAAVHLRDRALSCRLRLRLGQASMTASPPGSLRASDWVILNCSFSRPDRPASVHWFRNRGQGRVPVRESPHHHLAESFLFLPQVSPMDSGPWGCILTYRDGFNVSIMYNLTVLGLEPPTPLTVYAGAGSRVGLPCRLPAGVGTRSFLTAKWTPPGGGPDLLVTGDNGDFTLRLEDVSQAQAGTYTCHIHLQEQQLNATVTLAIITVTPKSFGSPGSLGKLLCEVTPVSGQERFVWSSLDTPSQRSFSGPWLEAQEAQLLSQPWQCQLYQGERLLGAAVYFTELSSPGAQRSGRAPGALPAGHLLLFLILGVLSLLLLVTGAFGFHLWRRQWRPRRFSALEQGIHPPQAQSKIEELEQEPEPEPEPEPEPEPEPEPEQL

T3: human LAG-3 protein with hFc tag (hLAG-3-hFc protein) (human, UniProt P18627 23-450)
T3 construct: also called immunogen 1; LAG-3 extracellular domain protein; not shown: human IgG Fc fragment (hFc) of the pCpC vector
T3 sequence: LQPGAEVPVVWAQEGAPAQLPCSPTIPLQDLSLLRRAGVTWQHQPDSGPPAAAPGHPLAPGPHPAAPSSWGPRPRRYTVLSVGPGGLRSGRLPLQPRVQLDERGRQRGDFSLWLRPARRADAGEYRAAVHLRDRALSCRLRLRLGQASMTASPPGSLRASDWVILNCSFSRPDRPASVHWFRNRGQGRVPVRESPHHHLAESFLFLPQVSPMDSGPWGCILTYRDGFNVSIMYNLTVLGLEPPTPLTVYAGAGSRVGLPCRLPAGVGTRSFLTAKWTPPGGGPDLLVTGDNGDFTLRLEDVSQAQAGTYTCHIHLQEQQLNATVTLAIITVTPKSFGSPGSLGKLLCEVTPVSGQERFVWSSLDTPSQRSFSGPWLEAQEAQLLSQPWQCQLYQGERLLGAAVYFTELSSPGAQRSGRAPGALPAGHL


Legend:
[1] = biological target: T1, LAG-3-hFc protein (human LAG-3 …); assay: FACS, inhibition of LAG-3-hFc binding to MHC II on Raji cells, antibody 0.000 nM
Method: (§1) The FACS reaction plate incubating the Raji cells was centrifuged to discard the supernatant. The above mixture was added as 100 μl per well to Raji cells and incubated on ice for 1-2 hours. The plate was washed twice with blocking solution (PBS, 2% fetal bovine serum) by centrifugation, added with 100 microliters of fluorescent (Alexa 488)-labeled secondary antibodies per well, and incubated on ice for 1.0 hours. The plate was washed 2-3 times by centrifugation with blocking solution (PBS, 2% fetal bovine serum), added with 100 microliters of PBS per well to suspend cells, and detected using FACS (FACS Calibur, BD) and the results were analyzed. Wherein, the IgG control was murine IgG, and the data in the table is the inhibition rate (%).

[2] = biological target: T2, human LAG-3 (full length, on the cell …); assay: FACS, HEK293-hLAG-3; 40.000 nM
Excerpt: (§2) The pIRES plasmid with the monkey-derived full-length gene was transfected into the HEK293 cell line to construct a HEK293 stable cell line containing monkey LAG-3 (herein referred to as HEK293-cLAG-3 stable cell line). The HEK293-hLAG-3 stable cell line and HEK293-cLAG-3 stable cell line were expanded in a T-75 cell culture flask to a 90% confluence. The medium was aspirated, and the cells were washed with HBSS (Hanks' Balanced Salt Solution) 1-2 times, then treated with a enzyme-free cell dissociation fluid (Versene solution: Life technology) and the cells were collected. The cells were washed with HBSS buffer for 1-2 times. After counted, the cells were diluted with HBSS to 1-2×10⁶ cells per ml, added with 1% goat serum blocking solution, incubated on ice for 20-30 minutes, and then washed with HBSS for 2 times by centrifugation. The collected cells were suspended in the FACS buffer (HBSS+1% BSA) to 2×10⁶ cells/ml, added as 100 microliters per well to a 96-well FACS reaction plate, added with 100 microliters per well of the antibody sample to be tested, incubated on ice for 1-2 hours. The plate was washed twice with the FACS buffer by centrifugation, added with 100 microliters of fluorescent (Alexa 488)-labeled secondary antibodies per well, and incubated on ice for 0.5-1.0 hours. The plate was washed 2-3 times with FACS buffer by centrifugation, added with 100 μl fixative solution (4% Paraformaldehyde) per well to suspend the cells. 5-10 minutes later, it was washed 1-2 times with FACS buffer by centrifugation. The cells were suspended with 100 microliters of FACS buffer, FACS (FACSCalibur, BD) was used for detection and the results were analyzed.

[3] = biological target: T3, human LAG-3 protein with hFc tag …; assay: FACS, blocks LAG-3-hFc binding to MHC II on Raji; 0.000 nM
Method: as §1

[4] = biological target: T2, human LAG-3 (full length, on the cell …); assay: FACS, HEK293-hLAG-3; 1.600 nM
Excerpt: as §2

Row | Binder | Inhibition rate (%) [1] | Mean fluorescence intensity [2] | Inhibition rate (%) [3] | Mean fluorescence intensity [4]
1 | 556F6B8 mouse-human chimeric antibody (antibody, V domains shown, also called mAb123-556F6B8; 556F8B8) VH: RVQLKQSGPGLVQPSQSLSITCTVSGFSLIKYGVHWVRQSPGEGLEWLGVIWRGGITDYNAAFMSRLSITKDNSKSQVFFKMNSLQADDTAIYYCAKWDGPLAMDYWGQGTSVTVSS VL: DIVMTQSHKFLSTSVGDRVSITCKASQDVGTTVAWYQQKPGQSPKLLIYWASTRHTGVPDRFTGSGSGTDFTLTISNVQSEDLADYFCQQYSSYPYTFGGGTKLEIK | 12.9% |  |  | 
2 | 556F6B8 (mouse antibody purified from hybridoma) (antibody, V domains shown, also called mAb123-556F6B8) VH: RVQLKQSGPGLVQPSQSLSITCTVSGFSLIKYGVHWVRQSPGEGLEWLGVIWRGGITDYNAAFMSRLSITKDNSKSQVFFKMNSLQADDTAIYYCAKWDGPLAMDYWGQGTSVTVSS VL: DIVMTQSHKFLSTSVGDRVSITCKASQDVGTTVAWYQQKPGQSPKLLIYWASTRHTGVPDRFTGSGSGTDFTLTISNVQSEDLADYFCQQYSSYPYTFGGGTKLEIK |  | 81.8 MFI | -10.7% | 43.5 MFI
3 | 405B8H3 (mouse antibody purified from hybridoma) (antibody, V domains shown, also called mAb103-405B8H3; 405B81-13) VH: QVQLQQSGAELVRPGASVTLSCKASGYTFTDYEMHWVKQTPVHGLEWIGATDPETGNSAYNQKFKGKAIMTADKSSSTAYMELRSLTSEDSAVYYCISTGWNDWGQGTSLTVSS VL: DIKMTQSPSSMYASLGERVTITCKASQDINSYLSWFQQKPGKSPKTLIYRADRLLDGVPSRFSGSGSGQDYSLTISSLEYGDMGIYYCLQYDEFPYTFGGGTKLEIK |  | 321 MFI | 0.3% | 99.4 MFI
4 | 105F1E10 (mouse antibody purified from hybridoma) (antibody, V domains shown, also called mAb009-105F1E10) VH: EVQLQQSGPELVKPGASVKMSCRASGYTFTDFKMHWMKQSHGKSLEWIGYIAPNNGGTAYNQKFRGKATLTVNESSNTAYMELRSLTSEDSAVYYCVDWDDVDYWGQGTTLTVSS VL: DIKMTQSPSSMYASLGERVTITCKASQDINSYLSWFQQKSGKSPKTLIYRANRLVDGVPSRFSGSGSGQDYSLTISSLEYEDMGIYYCLQYVEFPLTFGAGTKLELK |  | 315 MFI | -14% | 86.2 MFI
5 | 105F1E10 mouse-human chimeric antibody (antibody, V domains shown, also called mAb009-105F1E10) VH: EVQLQQSGPELVKPGASVKMSCRASGYTFTDFKMHWMKQSHGKSLEWIGYIAPNNGGTAYNQKFRGKATLTVNESSNTAYMELRSLTSEDSAVYYCVDWDDVDYWGQGTTLTVSS VL: DIKMTQSPSSMYASLGERVTITCKASQDINSYLSWFQQKSGKSPKTLIYRANRLVDGVPSRFSGSGSGQDYSLTISSLEYEDMGIYYCLQYVEFPLTFGAGTKLELK | -32.3% |  |  | 
6 | 405B8H3 mouse-human chimeric antibody (antibody, V domains shown, also called mAb103-405B8H3) VH: QVQLQQSGAELVRPGASVTLSCKASGYTFTDYEMHWVKQTPVHGLEWIGATDPETGNSAYNQKFKGKAIMTADKSSSTAYMELRSLTSEDSAVYYCISTGWNDWGQGTSLTVSS VL: DIKMTQSPSSMYASLGERVTITCKASQDINSYLSWFQQKPGKSPKTLIYRADRLLDGVPSRFSGSGSGQDYSLTISSLEYGDMGIYYCLQYDEFPYTFGGGTKLEIK | -15.6% |  |  | 
7 | 409D4E10 mouse-human chimeric antibody (antibody, V domains shown, also called mAb112-409D4E10) VH: QVQLQQSGAELVRPGASVTLSCKASGNTFTDYEMHWVKQTPVHGLEWIGATDPETDNTAYNQKFKGKAILTTDKSSSTAYMELRSLTSEDSAVYYCITSGWNDWGQGTSLTVSS VL: DIKMTQSPSSMYASLGERVTITCKASQDINSYLSWFQQKPGKSPKTLIYRANRLLDGVPSRFSGSGSGQDYSLTISSLEYEDMGIYYCLQYNEFPYTFGGGTKLEIK | -1.7% |  |  | 
8 | 409B11E12 mouse-human chimeric antibody (antibody, V domains shown, also called mAb104-409B11E12) VH: QVQLQQSGAELVRPGASVTLSCKASGYTFTDYEMHWVKQTTVHGLEWIGATDPETSYSAYNQKFKGKAILTADKSSSTAYMELRSLTSEDSAVYYCIATGWNDWGQGTSLTVSS VL: DLKMTQSPSSMYASLGERVTITCKASQDINSYLSWFQQKPGKSPKTLIYRANRLLDGVPSRFSGSGSGQDYSLTISSLEYEDMGIYYCLQYDEFPYTFGGGTKLEIK | -11.8% |  |  | 
9 | 409B11E12 (mouse antibody purified from hybridoma) (antibody, V domains shown, also called mAb104-409B11E12) VH: QVQLQQSGAELVRPGASVTLSCKASGYTFTDYEMHWVKQTTVHGLEWIGATDPETSYSAYNQKFKGKAILTADKSSSTAYMELRSLTSEDSAVYYCIATGWNDWGQGTSLTVSS VL: DLKMTQSPSSMYASLGERVTITCKASQDINSYLSWFQQKPGKSPKTLIYRANRLLDGVPSRFSGSGSGQDYSLTISSLEYEDMGIYYCLQYDEFPYTFGGGTKLEIK |  | 148 MFI | -21.2% | 55.6 MFI
10 | 409D4E10 (mouse antibody purified from hybridoma) (antibody, V domains shown, also called mAb112-409D4E10) VH: QVQLQQSGAELVRPGASVTLSCKASGNTFTDYEMHWVKQTPVHGLEWIGATDPETDNTAYNQKFKGKAILTTDKSSSTAYMELRSLTSEDSAVYYCITSGWNDWGQGTSLTVSS VL: DIKMTQSPSSMYASLGERVTITCKASQDINSYLSWFQQKPGKSPKTLIYRANRLLDGVPSRFSGSGSGQDYSLTISSLEYEDMGIYYCLQYNEFPYTFGGGTKLEIK |  | 153 MFI | -21.4% | 48 MFI
